± gives the uncertainty stated by the source.
Experiment: self-splicing fitness, log relative to wild type (ln ratio); higher = more splicing; Tetrahymena group I intron in knt gene, E. coli kanamycin selection, DiMSum; sequences stand for … in CUCUCU…GGAGGGAAAAGUUAUCAGGCAUGCACCUGGUAGCUAGUCUUUAAACCAAUAGAUUGCAUCGGUUUAAAAGGCAAGACCGUCAAAUUGCGGGAAAGGGGUCAACAGCCGUUCAGUACCAAGUCUCAGGGGAAACUUUGAGAUGGCCUUGCAAAGGGUAUGGUAAUAAGCUGACGGACAUGGUCCUAACCACGCAGCCAAGUCCUAAGUCAACAGAUCUUCUGUUGAUAUGGAUGCAGUUCACAGACUAAAUGUCGGUCGGGGAAGAUGUAUUCUUCUCAUAAGAUAUAGUCGGACCUCUCCUUAAUGGGAGCUAGCGGAUGAAGUGAUGCAACACUGGAGCCGCUGGGAACUAAUUUGUAUGCGAAAGUAUAUUGAUUAGUUUUGGAGUACUCGUGGUCG
How it was run: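 Library with all eight P1ex-region intron nucleotides randomised, intron inside the knt kanamycin-resistance gene on pET-22b(+), in E. coli BL21(DE3). Cells grew overnight at 37°C or 30°C on LB agar with or without 25 μg/mL kanamycin (plus 100 μg/mL carbenicillin, 50 μM IPTG, 0.2% rhamnose), in six replicate transformations. Pooled colonies were amplicon-sequenced on Illumina HiSeq 2500. DiMSum fitness is the error-weighted combination of wild-type-normalised replicate fold changes, kanamycin versus none.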

| Sequence | self-splicing fitness (ln) (30 °C) | self-splicing fitness (ln) (37 °C) |
| --- | --- | --- |
| UUCCAGCAAUAUUACGAGUG | -0.354 ± 0.059 | -0.52 ± 0.069 |
| ACGUAGCAAUAUUACGGAUU | -2.5 ± 0.14 | -1.8 ± 0.2 |
| UGCCAGCAAUAUUACGUGCC | -1.03 ± 0.095 | 0.0809 ± 0.15 |
| CAUAAGCAAUAUUACGAGUU | -3.62 ± 0.29 | -1.82 ± 0.14 |
| GAAUAGCAAUAUUACGAGAC |  | -0.147 ± 0.18 |
| CGGCAGCAAUAUUACGGAAU | -5.35 ± 0.41 | -1.42 ± 0.13 |
| AGCGAGCAAUAUUACGAACG | -2.14 ± 0.29 | -1.5 ± 0.2 |
| UUCCAGCAAUAUUACGCCAG | -1.93 ± 0.15 | -0.95 ± 0.15 |
| UUUUAGCAAUAUUACGGGCA | -1.86 ± 0.39 | -0.575 ± 0.27 |
| GUCAAGCAAUAUUACGAUUU | -0.962 ± 0.08 | -1.42 ± 0.11 |
| AUUGAGCAAUAUUACGCACG | -3.07 ± 0.37 |  |
| GUUAAGCAAUAUUACGCAUU | -2.16 ± 0.18 | -1.1 ± 0.16 |
| CGUCAGCAAUAUUACGUCAU | -3.73 ± 0.19 | -2.59 ± 0.16 |
| UAUAAGCAAUAUUACGCAGA | -0.745 ± 0.45 | -1.25 ± 0.18 |
| UACAAGCAAUAUUACGAUGA | -0.422 ± 0.072 | -0.314 ± 0.085 |
| ACACAGCAAUAUUACGGAUG | -1.54 ± 0.058 | -0.668 ± 0.084 |
| CCGUAGCAAUAUUACGUAGC | -3.91 ± 0.21 | -2.63 ± 0.22 |
| GAGCAGCAAUAUUACGGGGG | -3.36 ± 0.26 | -2.46 ± 0.32 |
| GUCAAGCAAUAUUACGGACA | -3.06 ± 0.39 | -2.09 ± 0.19 |
| CCGAAGCAAUAUUACGCGAG | -2.65 ± 0.11 | -2.08 ± 0.15 |
| AGGGAGCAAUAUUACGUAAA | -3.55 ± 0.31 | -2.73 ± 0.44 |
| UUGCAGCAAUAUUACGCAUU | -1.92 ± 0.19 | -1.42 ± 0.18 |
| CGCGAGCAAUAUUACGAAAU |  | -2.57 ± 0.27 |
| GGAUAGCAAUAUUACGUACA | -1.42 ± 0.097 | -0.395 ± 0.098 |
| GAGUAGCAAUAUUACGCCCA | -1.78 ± 0.39 | -1.39 ± 0.24 |

| Sequence | self-splicing fitness (ln) (30 °C) | self-splicing fitness (ln) (37 °C) |
| --- | --- | --- |
| CGAAAGCAAUAUUACGGCAG | -0.162 ± 0.081 | 0.194 ± 0.1 |
| UUAAAGCAAUAUUACGGUGG | -0.511 ± 0.079 | 0.0701 ± 0.1 |
| UUGAAGCAAUAUUACGCGAG | -0.254 ± 0.086 | 0.721 ± 0.12 |
| AGACAGCAAUAUUACGAUUG | -2.94 ± 0.16 | -3.15 ± 0.28 |
| GUUGAGCAAUAUUACGUAUA | -2.17 ± 0.29 |  |
| AUUUAGCAAUAUUACGGGAC | -2.36 ± 0.32 | -1.32 ± 0.26 |
| CCAUAGCAAUAUUACGGAAA | -2.94 ± 0.41 | -2.36 ± 0.34 |
| AGUAAGCAAUAUUACGACUG | -1.45 ± 0.12 | 0.23 ± 0.15 |
| CACCAGCAAUAUUACGAUUG | -0.914 ± 0.046 | -0.088 ± 0.072 |
| UGUGAGCAAUAUUACGUUUA | -2.98 ± 0.32 | -3.17 ± 0.47 |
| AAUCAGCAAUAUUACGUGAU | -0.823 ± 0.048 | -0.268 ± 0.067 |
| ACGAAGCAAUAUUACGGUGC | -4.82 ± 0.27 | -3.17 ± 0.2 |
| UAAUAGCAAUAUUACGCCAA |  | -2.37 ± 0.26 |
| ACAGAGCAAUAUUACGAGUG | -4.35 ± 0.37 | -3.43 ± 0.29 |
| CGACAGCAAUAUUACGUAUC |  | -1.59 ± 0.19 |
| AGAAAGCAAUAUUACGGUAG | -3.84 ± 0.22 | -2.37 ± 0.21 |
| GAGGAGCAAUAUUACGACAU | -2.069 ± 0.02 | -1.21 ± 0.036 |
| GCACAGCAAUAUUACGAGUG | -4.09 ± 0.26 | -2.64 ± 0.17 |
| GUACAGCAAUAUUACGACGU | -0.603 ± 0.075 | 0.215 ± 0.081 |
| AAUAAGCAAUAUUACGUCUA | -0.766 ± 0.077 | 0.434 ± 0.1 |
| AAUCAGCAAUAUUACGACCA | -0.116 ± 0.1 | 0.885 ± 0.12 |
| CACUAGCAAUAUUACGUAUC | -3.43 ± 0.25 | -2.27 ± 0.19 |
| GUAAAGCAAUAUUACGAUAG | -1.08 ± 0.075 | -0.747 ± 0.11 |
| CUAAAGCAAUAUUACGUGCA | -2.77 ± 0.2 | -1.91 ± 0.18 |
| GAUUAGCAAUAUUACGCGUU | -2.52 ± 0.31 | -1.8 ± 0.34 |

Reference: the supplement of paper PMC7877785
